Legend:
GST-RHA dsRBD1 = GST-RHA dsRBD1 (Homo sapiens, UniProt Q08211 1-91); experiment: pull-down
GST-RHA dsRBD2 = GST-RHA dsRBD2 (Homo sapiens, UniProt Q08211 165-264); experiment: pull-down
GST-RHA dsRBD1+2 = GST-RHA dsRBD1+2 (Homo sapiens, UniProt Q08211 1-264); experiment: pull-down
RHA dsRBD1 [1] = target: T1, RHA dsRBD1 (Homo sapiens, UniProt Q08211 1-91); experiment: crystal structure
RHA dsRBD2 [2] = target: T2, RHA dsRBD2 (Homo sapiens, UniProt Q08211 165-264); experiment: crystal structure
T2 sequence (Q08211 165-264): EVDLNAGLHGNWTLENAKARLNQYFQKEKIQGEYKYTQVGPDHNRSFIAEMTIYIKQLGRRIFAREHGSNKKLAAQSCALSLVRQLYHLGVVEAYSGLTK

RHA dsRBD2 K182A = RHA dsRBD2 K182A (Homo sapiens, UniProt Q08211 165-264, K182A); experiment: ITC
Sequence of RHA dsRBD2 K182A (Q08211 165-264 K182A): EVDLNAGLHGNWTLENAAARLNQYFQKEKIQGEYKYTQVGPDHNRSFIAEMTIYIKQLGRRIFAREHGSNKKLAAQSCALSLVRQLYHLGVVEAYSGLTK

RHA dsRBD2 [3] = target: T2, RHA dsRBD2; experiment: ITC
RHA dsRBD2 H207A = RHA dsRBD2 H207A (Homo sapiens, UniProt Q08211 165-264, H207A); experiment: ITC
Sequence of RHA dsRBD2 H207A (Q08211 165-264 H207A): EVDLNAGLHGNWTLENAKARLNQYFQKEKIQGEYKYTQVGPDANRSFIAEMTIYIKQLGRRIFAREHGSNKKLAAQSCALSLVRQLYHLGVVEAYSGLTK

RHA dsRBD1 N30A = RHA dsRBD1 N30A (Homo sapiens, UniProt Q08211 1-91, N30A); experiment: ITC
Sequence of RHA dsRBD1 N30A (Q08211 1-91 N30A): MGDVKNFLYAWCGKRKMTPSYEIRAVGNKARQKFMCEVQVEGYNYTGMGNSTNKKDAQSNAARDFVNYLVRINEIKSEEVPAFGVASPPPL

RHA dsRBD1 [4] = target: T1, RHA dsRBD1; experiment: ITC
[5] = target: RHA dsRBD1 N53A/K54A/K55A (Homo sapiens, UniProt Q08211 1-91, N53A;K54A;K55A); experiment: ITC
Sequence of RHA dsRBD1 N53A/K54A/K55A (Q08211 1-91 N53A/K54A/K55A): as the sequence (Q08211 1-91 N30A) above, with A30N, N53A, K54A, K55A counted along it

[6] = target: RHA dsRBD2 N234A/K235A/K236A (Homo sapiens, UniProt Q08211 165-264, N234A;K235A;K236A); experiment: ITC
Sequence of RHA dsRBD2 N234A/K235A/K236A (Q08211 165-264 N234A/K235A/K236A): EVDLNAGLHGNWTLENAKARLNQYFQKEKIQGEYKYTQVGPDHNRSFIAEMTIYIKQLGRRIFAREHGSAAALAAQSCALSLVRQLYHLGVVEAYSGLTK

RHA dsRBD1 Y9A = RHA dsRBD1 Y9A (Homo sapiens, UniProt Q08211 1-91, Y9A); experiment: ITC
Sequence of RHA dsRBD1 Y9A (Q08211 1-91 Y9A): as the sequence (Q08211 1-91 N30A) above, with Y9A, A30N counted along it

RHA dsRBD1+2 = RHA dsRBD1+2 (Homo sapiens, UniProt Q08211 1-264); experiment: ITC
Sequence of RHA dsRBD1+2 (Q08211 1-264): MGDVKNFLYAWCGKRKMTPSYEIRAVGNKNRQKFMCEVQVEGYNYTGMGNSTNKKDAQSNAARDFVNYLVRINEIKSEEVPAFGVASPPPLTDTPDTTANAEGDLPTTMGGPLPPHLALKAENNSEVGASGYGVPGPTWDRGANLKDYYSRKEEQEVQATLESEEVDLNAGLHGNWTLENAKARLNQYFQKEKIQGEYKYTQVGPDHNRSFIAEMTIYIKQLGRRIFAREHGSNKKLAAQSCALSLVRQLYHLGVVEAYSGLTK

T1 sequence (Q08211 1-91): as the sequence (Q08211 1-91 N30A) above, with A30N counted along it
Sequence of GST-RHA dsRBD1+2 (Q08211 1-264): as the sequence (Q08211 1-264) above
Sequence of GST-RHA dsRBD2 (Q08211 165-264): as the sequence (Q08211 165-264) above
Sequence of GST-RHA dsRBD1 (Q08211 1-91): as the sequence (Q08211 1-91 N30A) above, with A30N counted along it

B1: 5'-biotinylated siRNA21 duplex (dsRNA)
RNA 1: AGACAGCAUUAUGCUGUCUUU
RNA 2: AGACAGCAUUAUGCUGUCUUU
- binding result (GST-RHA dsRBD1): binds
- binding result (GST-RHA dsRBD2): binds
- binding result (GST-RHA dsRBD1+2): binds

B2: GC10 duplex (dsRNA)
RNA 1: GCGCGCGCGC
RNA 2: GCGCGCGCGC
- binding result (RHA dsRBD1 [1]): binds
- binding result (RHA dsRBD2 [2]): binds

B3: siRNA21 duplex (dsRNA)
RNA 1: AGACAGCAUUAUGCUGUCUUU
RNA 2: AGACAGCAUUAUGCUGUCUUU
modifications: 5' phosphate
- Kd (RHA dsRBD2 K182A): 334 µM
- Kd (RHA dsRBD2 [3]): 13.6 µM
- Kd (RHA dsRBD2 H207A): 291 µM
- Kd (RHA dsRBD1 N30A): 14.5 µM
- Kd (RHA dsRBD1 [4]): 5.93 µM
- binding result [5]: no binding
- binding result [6]: no binding
- binding result (RHA dsRBD1 Y9A): no binding
- Kd (RHA dsRBD1+2): 0.106 µM

From article PMC3597700
